Data reported in US20020164690A1.
Each block holds one substance with its values, some of them ahead of it.

Tests used:
CNTFRα on PC12D cells = CNTFRα on PC12D cells (UniProt Q08406); experiment: Scatchard analysis of 125I-CNTF saturation binding on PC12D cells, two-site fit; low affinity site, said to correspond to CNTF with CNTFRα
[1] = biological target: CNTF receptor on EW-1 cells (CNTFRα, gp130 and LIFRβ) (UniProt P26992); experiment: Scatchard analysis on EW-1 cells, two-site fit; site not assigned in words
Chain of CNTF receptor on EW-1 cells (CNTFRα, gp130 and LIFRβ) (P26992 23-342 limits assumed, chain 1 of 3): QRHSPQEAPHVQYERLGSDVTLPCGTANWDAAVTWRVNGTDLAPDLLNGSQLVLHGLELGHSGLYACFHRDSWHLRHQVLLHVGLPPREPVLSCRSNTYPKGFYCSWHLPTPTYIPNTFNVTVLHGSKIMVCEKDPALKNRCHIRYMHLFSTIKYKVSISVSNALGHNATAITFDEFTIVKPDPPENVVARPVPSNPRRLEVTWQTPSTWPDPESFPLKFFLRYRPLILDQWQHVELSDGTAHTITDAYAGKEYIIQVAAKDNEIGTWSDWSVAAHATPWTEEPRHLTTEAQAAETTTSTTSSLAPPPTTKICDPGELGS
Chain of CNTF receptor on EW-1 cells (CNTFRα, gp130 and LIFRβ) (P40189 23-918 limits assumed, chain 2 of 3, further chain): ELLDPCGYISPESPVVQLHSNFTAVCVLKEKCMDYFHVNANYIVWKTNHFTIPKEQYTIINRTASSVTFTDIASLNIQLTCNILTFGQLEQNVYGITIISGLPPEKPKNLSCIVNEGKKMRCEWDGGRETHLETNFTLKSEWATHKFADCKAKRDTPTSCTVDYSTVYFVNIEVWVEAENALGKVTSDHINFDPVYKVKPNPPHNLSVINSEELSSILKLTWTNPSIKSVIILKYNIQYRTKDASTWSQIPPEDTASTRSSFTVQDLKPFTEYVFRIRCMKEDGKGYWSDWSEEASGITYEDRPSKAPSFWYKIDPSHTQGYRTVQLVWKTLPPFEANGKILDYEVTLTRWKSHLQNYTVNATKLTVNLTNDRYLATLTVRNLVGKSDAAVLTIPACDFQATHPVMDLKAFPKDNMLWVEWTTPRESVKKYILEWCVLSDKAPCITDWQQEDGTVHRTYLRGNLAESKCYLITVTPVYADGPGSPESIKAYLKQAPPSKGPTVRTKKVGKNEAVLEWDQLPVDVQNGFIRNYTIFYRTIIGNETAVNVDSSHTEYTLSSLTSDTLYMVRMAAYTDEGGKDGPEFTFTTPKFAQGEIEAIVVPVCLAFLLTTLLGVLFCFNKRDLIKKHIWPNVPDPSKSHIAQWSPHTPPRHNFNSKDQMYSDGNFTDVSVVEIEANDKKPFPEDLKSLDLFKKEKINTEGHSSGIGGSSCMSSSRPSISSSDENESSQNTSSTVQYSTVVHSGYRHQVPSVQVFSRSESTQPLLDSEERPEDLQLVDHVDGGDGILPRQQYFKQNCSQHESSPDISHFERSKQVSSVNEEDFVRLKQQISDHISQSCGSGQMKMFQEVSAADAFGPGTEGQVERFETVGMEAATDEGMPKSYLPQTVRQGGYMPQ
Chain of CNTF receptor on EW-1 cells (CNTFRα, gp130 and LIFRβ) (P42702 45-1097 limits assumed, chain 3 of 3, further chain): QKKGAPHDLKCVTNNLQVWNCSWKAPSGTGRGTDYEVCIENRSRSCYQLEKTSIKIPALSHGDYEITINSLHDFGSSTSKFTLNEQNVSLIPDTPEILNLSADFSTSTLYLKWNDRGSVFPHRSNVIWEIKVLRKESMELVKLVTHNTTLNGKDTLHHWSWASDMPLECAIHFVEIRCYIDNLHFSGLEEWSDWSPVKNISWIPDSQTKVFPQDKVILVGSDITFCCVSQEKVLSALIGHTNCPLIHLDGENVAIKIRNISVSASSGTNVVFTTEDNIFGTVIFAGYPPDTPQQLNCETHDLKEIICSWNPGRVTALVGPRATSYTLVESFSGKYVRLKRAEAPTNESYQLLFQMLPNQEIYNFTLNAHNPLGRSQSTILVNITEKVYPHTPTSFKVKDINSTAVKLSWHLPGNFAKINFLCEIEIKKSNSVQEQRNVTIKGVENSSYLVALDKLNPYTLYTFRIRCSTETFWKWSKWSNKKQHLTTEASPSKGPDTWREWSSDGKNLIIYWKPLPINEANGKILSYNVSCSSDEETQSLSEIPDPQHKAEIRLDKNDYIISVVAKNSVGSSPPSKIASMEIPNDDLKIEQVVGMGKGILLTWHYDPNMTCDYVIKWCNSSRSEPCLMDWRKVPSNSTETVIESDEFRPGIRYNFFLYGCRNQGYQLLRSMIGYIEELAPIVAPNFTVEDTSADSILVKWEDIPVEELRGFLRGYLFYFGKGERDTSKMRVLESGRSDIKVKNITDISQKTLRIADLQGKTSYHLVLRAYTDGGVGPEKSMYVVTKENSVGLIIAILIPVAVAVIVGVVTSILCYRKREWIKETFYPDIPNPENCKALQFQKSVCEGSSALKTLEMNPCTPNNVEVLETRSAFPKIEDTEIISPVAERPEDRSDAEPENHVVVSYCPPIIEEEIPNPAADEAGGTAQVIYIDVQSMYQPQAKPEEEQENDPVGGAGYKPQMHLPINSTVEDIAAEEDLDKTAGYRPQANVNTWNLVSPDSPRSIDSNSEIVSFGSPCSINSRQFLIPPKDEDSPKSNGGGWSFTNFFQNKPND

[2] = biological target: CNTFRα:β1 (CNTFRα and gp130) on PC12D cells (UniProt Q08406); experiment: Scatchard analysis of 125I-CNTF saturation binding on PC12D cells, two-site fit; high affinity site, interpreted as the intermediate of CNTF, CNTFRα and gp130
Chain of CNTFRα:β1 (CNTFRα and gp130) on PC12D cells (Q08406 23-342 limits assumed, chain 1 of 2): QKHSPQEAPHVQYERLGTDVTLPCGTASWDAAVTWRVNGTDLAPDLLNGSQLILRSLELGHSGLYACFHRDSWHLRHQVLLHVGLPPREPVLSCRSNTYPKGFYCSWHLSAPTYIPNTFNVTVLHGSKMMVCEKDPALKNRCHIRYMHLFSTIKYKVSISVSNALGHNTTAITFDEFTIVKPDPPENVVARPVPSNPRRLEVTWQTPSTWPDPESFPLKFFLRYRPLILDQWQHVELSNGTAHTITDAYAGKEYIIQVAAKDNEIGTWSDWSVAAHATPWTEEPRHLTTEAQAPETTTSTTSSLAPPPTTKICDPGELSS
Chain of CNTFRα:β1 (CNTFRα and gp130) on PC12D cells (P40190 23-918 limits assumed, chain 2 of 2, further chain): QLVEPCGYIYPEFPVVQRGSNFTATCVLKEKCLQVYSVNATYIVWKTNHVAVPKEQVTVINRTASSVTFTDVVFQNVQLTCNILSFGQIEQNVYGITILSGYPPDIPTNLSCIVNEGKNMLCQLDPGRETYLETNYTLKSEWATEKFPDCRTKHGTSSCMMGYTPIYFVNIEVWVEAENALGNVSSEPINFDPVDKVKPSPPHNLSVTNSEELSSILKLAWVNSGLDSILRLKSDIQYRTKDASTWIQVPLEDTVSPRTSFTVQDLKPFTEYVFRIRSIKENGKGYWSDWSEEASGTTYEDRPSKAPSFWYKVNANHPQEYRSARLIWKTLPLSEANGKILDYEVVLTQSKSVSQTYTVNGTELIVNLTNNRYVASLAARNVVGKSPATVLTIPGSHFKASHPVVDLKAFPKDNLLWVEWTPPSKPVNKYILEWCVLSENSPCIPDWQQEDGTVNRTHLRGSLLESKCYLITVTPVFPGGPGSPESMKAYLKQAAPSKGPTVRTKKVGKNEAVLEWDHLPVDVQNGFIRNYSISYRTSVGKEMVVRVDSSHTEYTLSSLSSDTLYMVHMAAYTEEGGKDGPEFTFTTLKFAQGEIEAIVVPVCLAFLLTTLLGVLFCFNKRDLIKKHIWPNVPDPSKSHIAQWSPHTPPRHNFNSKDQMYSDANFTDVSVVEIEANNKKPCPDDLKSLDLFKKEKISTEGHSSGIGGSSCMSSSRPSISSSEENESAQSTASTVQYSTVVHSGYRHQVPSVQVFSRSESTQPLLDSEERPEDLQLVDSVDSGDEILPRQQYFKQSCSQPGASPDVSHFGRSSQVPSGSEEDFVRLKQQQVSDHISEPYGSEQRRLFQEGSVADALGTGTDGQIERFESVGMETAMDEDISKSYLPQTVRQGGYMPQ

[3] = biological target: recombinant human IL-1 (human); experiment: cell-based or functional assay
human IL-13 (human) = human IL-13 (human) (UniProt P35225); experiment: cell-based or functional assay
Chain of human IL-13 (human) (P35225 35-146 limits assumed): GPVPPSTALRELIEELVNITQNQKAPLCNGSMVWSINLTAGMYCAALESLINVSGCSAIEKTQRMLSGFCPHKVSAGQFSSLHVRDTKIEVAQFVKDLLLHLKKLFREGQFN

human IL-4 (human) = human IL-4 (human) (UniProt P05112); experiment: cell-based or functional assay
Chain of human IL-4 (human) (P05112 25-153 limits assumed): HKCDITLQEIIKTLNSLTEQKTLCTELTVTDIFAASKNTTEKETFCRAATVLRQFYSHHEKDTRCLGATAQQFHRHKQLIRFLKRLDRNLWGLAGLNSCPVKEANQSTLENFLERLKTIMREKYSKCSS

Chain of IL-1-RI.Fc (P14778 18-336): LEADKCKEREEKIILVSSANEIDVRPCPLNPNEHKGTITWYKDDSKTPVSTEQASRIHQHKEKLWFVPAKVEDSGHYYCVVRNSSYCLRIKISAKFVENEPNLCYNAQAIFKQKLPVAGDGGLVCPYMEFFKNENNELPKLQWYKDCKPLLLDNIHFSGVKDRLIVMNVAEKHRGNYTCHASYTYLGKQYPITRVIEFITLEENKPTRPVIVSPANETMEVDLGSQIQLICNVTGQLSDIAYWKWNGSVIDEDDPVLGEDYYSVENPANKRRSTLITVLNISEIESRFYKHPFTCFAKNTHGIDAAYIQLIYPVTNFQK
Chain of CNTFRα on PC12D cells (Q08406 23-342 limits assumed): as the sequence (Q08406 23-342 limits assumed, chain 1 of 2) above

Substance: IL-1-RI.Fc (from UniProt P14778 18-336) (Fc fusion)
- IL-1-dependent production of IL-6 by MRC5 cells: IL-1 concentration blocked [3]: 10 to 20 pM

Substance: IL-4/IL-13 Trap 1132 (from UniProt P24394 26-232; P78552 27-343) (Fc fusion)
- TF1 bioassay: activity against IL-4/IL-13 Trap 943 (fold (against Trap 943)) (human IL-13 (human)): 2 to 3

Substance: IL-13Rα1.IL-4Rα.Fc (from UniProt P78552 22-343; P24394 26-232) (Fc fusion)
- TF1 bioassay: IL-13 concentration at which growth is inhibited by 50% (10 nM trap) (human IL-13 (human)): 4 to 5 nM
- TF1 bioassay: IL-13 concentration up to which 10 nM trap blocks growth (human IL-13 (human)): 2 nM
- TF1 bioassay: IL-4 concentration at which growth is inhibited by 50% (10 nM trap) (human IL-4 (human)): 3 to 4 nM
- TF1 bioassay: IL-4 concentration up to which 10 nM trap blocks growth (human IL-4 (human)): 1 nM

Other lines, results leading:

- Kd (CNTFRα on PC12D cells): 3.4 nM
- Kd [1]: 1 nM
- Kd [2]: 0.009 nM
Substance: 125I-CNTF (ligand)

- TF1 bioassay: IL-13 concentration at which growth is inhibited by 50% (10 nM trap) (human IL-13 (human)): 4 to 5 nM
- TF1 bioassay: IL-13 concentration up to which 10 nM trap blocks growth (human IL-13 (human)): 2 nM
Substance: IL-4Rα.IL-13Rα1.Fc (from UniProt P24394 26-232; P78552 22-343) (Fc fusion)
